In publication PMC6838142, “Nano-Antagonist Alleviates Inflammation and Allows for MRI of Atherosclerosis” (Nanotheranostics, 2019):

Experiments:
BMDMs = experiment: GSH/GSSG assay in LPS-primed BMDMs; format: cell-based, mouse; settings: LPS-primed (100 ng/mL) BMDMs, 5 µM CCTV vs vehicle, 8 experiments
[1] = Dynamic light scattering of nanoparticles; format: physicochemical; settings: Malvern Zetasizer Nano S; for Size (Mean Z average): hydrodynamic diameter
Protocol: Lipid-peptide conjugates were synthesized from either DSPE-PEG-CO2H or DSPE-PEG-MAL using peptides derived using SVM prediction platform and listed in Supplementary Table S2. The peptides were conjugated to either the N-terminus or via sulfhydryl groups as depicted in Figure 1E. Lipid films from both PEGylated derivatives were prepared by evaporation under nitrogen gas, from 1 µM of lipid solution in chloroform. Tetrapeptides were custom-synthesized by Genscript. 5 µmol of peptide solutions in water:dimethylformamide (1:1) were prepared via a brief bath sonication. […] PEGylated lipids prepared above were sonicated (10 min, 300 W, room temperature) in 5 mL of MES (pH 6, 100 mM) for DSPE-PEG-CO2H and in 5 mL of HEPES buffered saline [HBS] (pH 7.2, 100 mM, 154 mM NaCl) for DSPE-PEG-MAL. Next, DSPE-PEG-CO2H was activated by the addition of 2 mg of EDC (20 mg/mL in water) and 5 mg of sulfo-NHS (10 mg/mL in water). This was sonicated at 15 W for 10 min in a temperature controlled bath at 30 °C. Then, peptide solutions/suspensions were added to the resulting DSPE-PEG-NHS or previously prepared DSPE-PEG-MAL and stirred at room temperature for 4 h. The reaction with DSPE-PEG-NHS was quenched by the addition of 100 µL of 0.5 M of NH2OH in HBS, plus 1 mM EDTA. The reaction with DSPE-PEG-MAL was quenched by the addition of 7 µL of 2-mercaptoethanol. The solution was freezed at -80 °C and lyophilized. Next, lipid-peptide conjugates were extracted with chloroform (3 x 2 mL) and centrifuged at 4000 g x 5 min. Combined extract supernatants were evaporated under N2 gas and sonicated (10 min, 100 W) in 0.5-1 mL of water at room temperature. This raw product was purified by size […] chromatography as follows. Millipore Vantage column (10 x 500 mm) was packed with Sepharose 4B in deionized water under flow rate of 0.5 mL/min. Next, 0.5 mL of raw nanoparticle preparation was injected into the column and 0.5 mL fractions were collected at 0.5 mL/min simultaneously with UV detection at 190, 214, 250 and 280 nm using the Bio Rad DuoFlow system equipped with BioLogic QuadTec UV/Vis detector. See Supplementary Figure S2 for representative chromatograms. Combined fractions 15-31 were frozen and lyophilized. Particles used in signalling In vitro work were prepared by reconstitution of lyophilizates in PBS or HBS buffer via sonication. Particles used in reporter, flow cytometry and microscopy experiments were prepared by addition of 1% (by weight) of Rhodamine-PE in ethanol followed by reconstitution as described above. Particles used in magnetic resonance imaging (MRI) and time-resolved fluorescence (TRF) assays were prepared by addition of 10-20% (by weight) of gadolinium or europium chelate-lipids followed by reconstitution as above. Gadolinium-DTPA (18:0 PE-DTPA) was obtained from Avanti Polar Lipids and europium cryptate-NHS was obtained from Aat Bioquest (Supplementary Table S1). Europium cryptate-NHS was further conjugated to phosphatidylethanolamine (PE) to obtain Eu-cryptate-PE according to published and well established protocols. To confirm peptide conjugation, the powder was reconstituted in 1 mL of chloroform and analyzed with TLC (eluent chloroform:methanol:water 65:25:4) detecting with Molybdenum blue (Supplementary Figure S3A) or Dragendorff reagent (Supplementary Figure S3B). Nanoparticles were characterized by dynamic light scattering using Malvern Zetasizer Nano S (Supplementary Table S3). The presence of the peptide bond (N-H) and aliphatic C-H and C-C stretches (lipids) was confirmed by infrared (IR) spectroscopy. Nanoparticles were isolated as a homogeneous population (peak) in gel-filtration (see above) and were used without additional purification.

Compound: CC(=O)N[C@@H](CS)C(=O)O [NAC, N-Acetyl-L-cysteine, reference compound]
- GSH levels (BMDMs): In contrast to classic antioxidant NAC, CCTV was unable to restore GSH levels
- GSSG levels (BMDMs): In contrast to classic antioxidant NAC, CCTV was unable to restore GSH levels or reduce GSSG

Compound: ALLC [B4, ALLC peptide-lipid conjugate nanoparticle, N-terminus conjugation]
- Mean Polydispersity Index (PDI) [1]: 0.151
- Size (Mean Z average) [1]: 86 nm

Compound: ALLC [C4, ALLC peptide-lipid conjugate nanoparticle, SH conjugation]
- Mean Polydispersity Index (PDI) [1]: 0.002
- Size (Mean Z average) [1]: 79 nm

Compound: DKQT [B1, DKQT peptide-lipid conjugate nanoparticle, N-terminus conjugation]
- Mean Polydispersity Index (PDI) [1]: 0.176
- Size (Mean Z average) [1]: 204 nm

Compound: HLDK [B3, HLDK peptide-lipid conjugate nanoparticle, N-terminus conjugation]
- Mean Polydispersity Index (PDI) [1]: 0.257
- Size (Mean Z average) [1]: 61 nm

Compound: IVAK [B2, IVAK peptide-lipid conjugate nanoparticle, N-terminus conjugation]
- Mean Polydispersity Index (PDI) [1]: 0.058
- Size (Mean Z average) [1]: 53 nm

Compound: KISV [A4, KISV peptide-lipid conjugate nanoparticle, N-terminus conjugation]
- Mean Polydispersity Index (PDI) [1]: 0.09
- Size (Mean Z average) [1]: 114 nm

Compound: KTIV [A6, KTIV peptide-lipid conjugate nanoparticle, N-terminus conjugation]
- Mean Polydispersity Index (PDI) [1]: 0.054
- Size (Mean Z average) [1]: 142 nm

Compound: KVSA [A2, KVSA peptide-lipid conjugate nanoparticle, N-terminus conjugation]
- Mean Polydispersity Index (PDI) [1]: 0.124
- Size (Mean Z average) [1]: 110 nm

Compound: LLIA [A3, LLIA peptide-lipid conjugate nanoparticle, N-terminus conjugation]
- Mean Polydispersity Index (PDI) [1]: 0.162
- Size (Mean Z average) [1]: 134 nm

Compound: LLLI [B6, LLLI peptide-lipid conjugate nanoparticle, N-terminus conjugation]
- Mean Polydispersity Index (PDI) [1]: 0.152
- Size (Mean Z average) [1]: 223 nm

Compound: MDHL [C2, MDHL peptide-lipid conjugate nanoparticle, N-terminus conjugation]
- Mean Polydispersity Index (PDI) [1]: 0.111
- Size (Mean Z average) [1]: 134 nm

Compound: MKVS [C1, MKVS peptide-lipid conjugate nanoparticle, N-terminus conjugation]
- Mean Polydispersity Index (PDI) [1]: 0.159
- Size (Mean Z average) [1]: 189 nm

Compound: QDSM [B5, QDSM peptide-lipid conjugate nanoparticle, N-terminus conjugation]
- Mean Polydispersity Index (PDI) [1]: 0.169
- Size (Mean Z average) [1]: 198 nm

Compound: RLAS [A1, RLAS peptide-lipid conjugate nanoparticle, N-terminus conjugation]
- Mean Polydispersity Index (PDI) [1]: 0.198
- Size (Mean Z average) [1]: 93 nm
